Source: patent publication US20080103095A1

Molecular target: firefly luciferase (firefly) [luciferase: P08659]
Experiment: cell-based or functional assay

firefly luciferase (firefly) [luciferase: P08659], sequence (P08659 whole entry): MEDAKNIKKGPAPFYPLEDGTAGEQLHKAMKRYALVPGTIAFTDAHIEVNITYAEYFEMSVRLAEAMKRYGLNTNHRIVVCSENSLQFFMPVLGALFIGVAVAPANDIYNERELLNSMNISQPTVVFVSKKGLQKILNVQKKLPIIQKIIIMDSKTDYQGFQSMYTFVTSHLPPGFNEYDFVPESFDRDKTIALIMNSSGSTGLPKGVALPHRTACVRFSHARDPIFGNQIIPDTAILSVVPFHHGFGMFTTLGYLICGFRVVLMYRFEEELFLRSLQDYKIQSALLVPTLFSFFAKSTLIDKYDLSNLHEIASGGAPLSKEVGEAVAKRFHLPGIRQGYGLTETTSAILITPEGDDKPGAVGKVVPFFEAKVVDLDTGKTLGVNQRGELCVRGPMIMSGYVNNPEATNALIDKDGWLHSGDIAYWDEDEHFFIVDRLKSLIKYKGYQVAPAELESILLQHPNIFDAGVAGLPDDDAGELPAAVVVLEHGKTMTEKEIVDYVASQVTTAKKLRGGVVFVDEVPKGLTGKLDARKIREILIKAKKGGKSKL

percent protein aggregation (light scattering, OD 320 nm, 43° C 30 min; luciferase heated alone = 100%) [%]	Substance
40	grp170 as used in Examples 6 and 8 (source and species not stated)
20	hsp110 as used in Examples 6, 8 and 10 (source and species not stated)
